Paper PMC4066811

What was measured:
[1] = target: GST-syntaxin 3B T14E (phosphomimetic mutant, without the transmembrane domain) (mouse); assay: pull-down
[2] = target: GST-syntaxin 3B (cytoplasmic domain without the transmembrane domain, residues 2-264), wild type (mouse); assay: pull-down

amount of bound SNAP-25, normalized to wild type [1]: 180%
amount of bound SNAP-25, normalized to wild type [2]: 100%
Substance: His6-SNAP-25b (recombinant) (from UniProt P60879-1 1-206) (natural protein)
